Assay [1] concerns the target recombinant biotinylated human Fc gamma receptor I (FcγRI/CD64) (human) (UniProt P12314). Kind of assay: AlphaLISA competition; test molecule titrated against human IgG Fc acceptor beads for biotinylated FcγRI. For orientation: In Alpha technology, singlet oxygen from a donor bead excites a nearby acceptor bead.
The target in assay [2] is Fc gamma receptor IIb (FcgRIIb, CD32b) (human) (UniProt P31994). Kind of assay: AlphaLISA competition or analogous assay for FcγRIIb (not described).
Fc gamma receptor IIb (FcgRIIb, CD32b) (human), sequence (P31994 46-217 limits assumed): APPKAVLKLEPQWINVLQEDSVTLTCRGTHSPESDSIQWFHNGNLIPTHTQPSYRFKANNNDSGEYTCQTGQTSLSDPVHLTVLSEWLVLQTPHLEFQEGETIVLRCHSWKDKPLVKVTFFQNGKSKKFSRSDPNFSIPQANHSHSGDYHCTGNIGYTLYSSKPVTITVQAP
Assay [3] addresses recombinant biotinylated human Fc gamma receptor IIIa (FcγRIIIa/CD16) (human) (UniProt P08637). Kind of assay: AlphaLISA competition; test molecule titrated against human IgG Fc acceptor beads for biotinylated FcγRIIIa.
In assay [4] the target is recombinant biotinylated human Fc gamma receptor IIa (FcγRIIa/CD32a 167H) (human) (UniProt P12318). Kind of assay: AlphaLISA competition; test molecule titrated against human IgG Fc acceptor beads for biotinylated FcγRIIa.
recombinant biotinylated human Fc gamma receptor IIa (FcγRIIa/CD32a 167H) (human), sequence (P12318 36-218 limits assumed): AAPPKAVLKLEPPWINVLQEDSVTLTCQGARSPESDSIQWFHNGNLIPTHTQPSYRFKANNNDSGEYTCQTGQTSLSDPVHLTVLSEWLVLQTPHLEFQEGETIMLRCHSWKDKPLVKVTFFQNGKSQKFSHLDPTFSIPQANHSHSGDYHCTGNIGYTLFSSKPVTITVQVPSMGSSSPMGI
Assay [5] deals with recombinant biotinylated human neonatal Fc receptor (FcRn) (human) (UniProt P55899). Nature of the assay: AlphaLISA competition at pH 6; test molecule titrated against human IgG acceptor beads for biotinylated human FcRn.
recombinant biotinylated human neonatal Fc receptor (FcRn) (human), sequence (P55899 24-297 limits assumed, chain 1 of 2): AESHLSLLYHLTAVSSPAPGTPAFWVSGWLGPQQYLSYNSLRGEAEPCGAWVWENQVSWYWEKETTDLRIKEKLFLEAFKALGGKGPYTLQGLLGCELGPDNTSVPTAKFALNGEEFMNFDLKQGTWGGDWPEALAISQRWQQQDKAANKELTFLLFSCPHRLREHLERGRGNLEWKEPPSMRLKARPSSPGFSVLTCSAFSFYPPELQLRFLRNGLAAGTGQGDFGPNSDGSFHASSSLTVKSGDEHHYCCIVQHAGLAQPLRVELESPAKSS
recombinant biotinylated human neonatal Fc receptor (FcRn) (human), sequence (chain, as listed by the source limits assumed, chain 2 of 2): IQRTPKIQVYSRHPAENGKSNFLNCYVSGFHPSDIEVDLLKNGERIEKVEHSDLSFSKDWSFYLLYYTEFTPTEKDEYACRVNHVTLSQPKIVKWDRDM

The results in this text go back to patent US20230201364A1.

A word on the Kd: it is the free concentration of one partner at which half of the binding sites on the other are occupied at equilibrium, for simple one-to-one binding.

recombinant biotinylated human Fc gamma receptor IIIa (FcγRIIIa/CD16) (human), sequence (P08637 17-208 limits assumed): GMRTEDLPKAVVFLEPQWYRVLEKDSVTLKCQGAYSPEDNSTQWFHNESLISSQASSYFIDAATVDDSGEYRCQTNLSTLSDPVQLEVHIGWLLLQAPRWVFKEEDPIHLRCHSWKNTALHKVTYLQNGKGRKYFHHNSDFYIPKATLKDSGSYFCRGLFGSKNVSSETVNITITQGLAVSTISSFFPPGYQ
recombinant biotinylated human Fc gamma receptor I (FcγRI/CD64) (human), sequence (P12314 16-288 limits assumed): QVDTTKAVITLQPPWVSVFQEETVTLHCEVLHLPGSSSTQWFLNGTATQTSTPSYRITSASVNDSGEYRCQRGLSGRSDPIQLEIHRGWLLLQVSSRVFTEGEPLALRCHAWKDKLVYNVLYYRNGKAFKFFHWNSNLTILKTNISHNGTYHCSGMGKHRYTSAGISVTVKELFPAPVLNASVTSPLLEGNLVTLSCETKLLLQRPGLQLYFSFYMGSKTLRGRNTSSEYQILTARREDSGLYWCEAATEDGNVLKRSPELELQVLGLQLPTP

B1: CMP-016 (LZM-009 conjugated to CMP-003, DAR 1, K248) (antibody)
VH: QVQLVQSGAEVKKPGASVKVSCKASGYTFTSYYMYWVRQAPGQGLEWMGGVNPSNGGTNFNEKFKSRVTITADKSTSTAYMELSSLRSEDTAVYYCARRDYRYDMGFDYWGQGTTVTVSS
VL: EIVLTQSPATLSLSPGERATISCRASKGVSTSGYSYLHWYQQKPGQAPRLLIYLASYLESGVPARFSGSGSGTDFTLTISSLEPEDFATYYCQHSRELPLTFGTGTKVEIK
chain: APTSSSTKKTQLQLEHLLLDLQXILNGINNYKNPKLTRXLXYKFYXPKKATELKHLQCLEEELKPLEEVLXLAQSKNFHLRPRDLISNINVIVLELKGSETTFXCEYADETATIVEFLNRWITFSQSIISTLT
modifications: not fully specified; Nle at 23, 39, 46 and Hse at 41, 71, 104 (as in SEQ ID NO: 3); ~0.5 kDa PEG on Y45; 0.5 kDa PEG on F42Y whose azide end is joined to the DBCO linker of the antibody; the heavy chain carries a chemical linker to CMP-003 on Lys K248 (Eu numbering) of the Fc; DAR 1
B1: the Kd in assay [1] worked out at 3.81 nM; in assay [2], 4710 nM; in assay [3], 481 nM; in assay [4], 1140 nM; in assay [5] it was 25.3 nM.

B2: CMP-028 (LZM-009 conjugated to CMP-003, DAR 1.9, K288) (antibody)
VH: QVQLVQSGAEVKKPGASVKVSCKASGYTFTSYYMYWVRQAPGQGLEWMGGVNPSNGGTNFNEKFKSRVTITADKSTSTAYMELSSLRSEDTAVYYCARRDYRYDMGFDYWGQGTTVTVSS
VL: EIVLTQSPATLSLSPGERATISCRASKGVSTSGYSYLHWYQQKPGQAPRLLIYLASYLESGVPARFSGSGSGTDFTLTISSLEPEDFATYYCQHSRELPLTFGTGTKVEIK
chain: APTSSSTKKTQLQLEHLLLDLQXILNGINNYKNPKLTRXLXYKFYXPKKATELKHLQCLEEELKPLEEVLXLAQSKNFHLRPRDLISNINVIVLELKGSETTFXCEYADETATIVEFLNRWITFSQSIISTLT
modifications: not fully specified; Nle at 23, 39, 46 and Hse at 41, 71, 104 (as in SEQ ID NO: 3); ~0.5 kDa PEG on Y45; 0.5 kDa PEG on F42Y whose azide end is joined to the DBCO linker of the antibody; the heavy chain carries a chemical linker to CMP-003 on Lys K288 (Eu numbering) of the Fc; DAR 1.9
In the case of B2, the dissociation constant Kd in assay [1] turned out to be 12 nM; in assay [2], 3340 nM; in assay [3], 5410 nM; in assay [4], 1870 nM; in assay [5], 27.1 nM.

B3: CMP-102 (LZM-009 conjugated to CMP-003, DAR 1, K288) (antibody)
VH: QVQLVQSGAEVKKPGASVKVSCKASGYTFTSYYMYWVRQAPGQGLEWMGGVNPSNGGTNFNEKFKSRVTITADKSTSTAYMELSSLRSEDTAVYYCARRDYRYDMGFDYWGQGTTVTVSS
VL: EIVLTQSPATLSLSPGERATISCRASKGVSTSGYSYLHWYQQKPGQAPRLLIYLASYLESGVPARFSGSGSGTDFTLTISSLEPEDFATYYCQHSRELPLTFGTGTKVEIK
chain: APTSSSTKKTQLQLEHLLLDLQXILNGINNYKNPKLTRXLXYKFYXPKKATELKHLQCLEEELKPLEEVLXLAQSKNFHLRPRDLISNINVIVLELKGSETTFXCEYADETATIVEFLNRWITFSQSIISTLT
modifications: not fully specified; Nle at 23, 39, 46 and Hse at 41, 71, 104 (as in SEQ ID NO: 3); ~0.5 kDa PEG on Y45; 0.5 kDa PEG on F42Y whose azide end is joined to the DBCO linker of the antibody; the heavy chain carries a chemical linker to CMP-003 on Lys K288 (Eu numbering) of the Fc; DAR 1
Regarding B3, the Kd in assay [1] was 2.3 nM; in assay [2], 6680 nM; in assay [3], 272 nM; in assay [4], 1180 nM; in assay [5], 10.7 nM.
